Experiment: soluble on expression in E. coli; label from the status in PepcDB or PDB records

Sequence	soluble on expression in E. coli
SLRVMLPNKKALEIIRKYMKIYNGKNEKDIKERLIKELKEEHVLVETEDGTYTLKAEDEEEMMHSKVGALKEAIYKFAKPSKITDLSNPRVLDLCSGMGYNAIAALHYNKNAEIDMVEICEEVLFLTLFLDIPYKEHEIIKDKVREYFLNKIGIEYKSDYDNINLYVGDARKFIIKSDKKYNVVFHDAFSPKRDPTLYTYDFLKEIYKRMEDNGVLISYSSAIPFRSALVDCGFVISEKESVGRKRGITLAYKNPNFKPNRINEVDERVIALSVIALPYRDETLSLTKDKIIEDREERREKLKEKLIKIGKYLSTKQIKKGNIPEEILKIQKEDLNSSEIIKKMRLKFFKDANIFIL	soluble
MSAKREFSHITLASTPFKKRIDQNSLKTDSDIEKDTNIAHKCAERFNYNTNLHRKVTLSDRFELAALGYEMKAKPRTIIEKHNDCDEFHFIYRKEKKNDYGTGSPLSAGLSLSNPLPAGRGFLSPAIQNTSNQFTFSGSPRITPQKHTPVSANHKPARSIFDDIPSNIA	not soluble
GMTKIRKIAVFIEETRIEAGREISPPTRKAVAVAVIENPFAGRYVEDLTELMDTGAELGALLGERCVQALGIRPEQAESYGKSAMVGENGELEHAAAILHPKLGAPLRKAVEKGAALVPSSKKMGSPGQVLDVPLGHKDAAYVRSHFDGIEVRLNDAPRANEIMVAVAVTDSGRPLPRVGGLTHDAAEGKDGLR	soluble
MMKRNLIGAFIAASTLLSSSVAFSQDKPAYETGMIPADHIMVPDGDIQASIFLISDANGWTEADETRAKALVEKGAAVVGIDFKEYLKALEADDDECIYMISDIESLSQQIQRTAGTGSYRLPIVTGIGKGGTLALAMIAQSPVSTVREAVAVDPKAGLPLEKILCTPATKDKVDGETVYGLTDGALPAPVSVIFTPDADQKGRDHVNALVKLHSDIEVTDVTDKADEVLTQTLSDKVDAAGDSGNPLGLPITVLEAKPVMDTMAVIYSGDGGWRDLDEEVGSALQKQGVPVIGVDALRYFWKEKDPKEVAGDLARIIDTYRKEWKVKNVVLIGYSFGADIIPATYNLLPDRVKSSVAQLSLLGLSNEVDFEISVQGWLGVAGEGKGGKTVDDIAKIDPKLVQCVYGTEEEDEDPCPGLKAKGVETIGIEGGHHFDEDYEALAKRIVTSLKTRLAKLEHHHHHH	soluble
MGSDKIHHHHHHMTNLLSVRDLSIALCQGQEQRYILEKVTFEIKEGETVALVGESGSGKSVTALSILQLLPFLKTLYQSGEILFNDKDLLKQKEEDLRKVRGKDIAMIFQEPMTALNPLHNVERQIGEVLKMHSDMTNQSLRAHIIDLLTQVGIHEPQKRLGSFPHELSGGQRQRVMIAMALANNPRLLIADEPTTALDVTVQARILELLVHLKKQNNMSMLFITHNLAIVRCIADRVYVMRKGKIVESAPIDQLFANAQKPYTKQLLAAEPKGYPLQADKSAPILMQGKKVRVWFPIKKGLLRRTKGYIKAVQDMDVTIRVGQTLGVVGESGSGKTTLGLSLIRMLSSKGQIIFDDIDISNFTFKKMRSLRRHIQIVFQDPFGSLSPRMSVSEIIAEGLSIHEPKLSYSERNDRVIEALHEVNLDPSTRYRYPHEFSGGQRQRIALARAIILKPRFIMLDEPTSSLDVSVQAQIISLLLHLQKKYHLGYLFISHDLKVIKALAHEVIVMRNGEMVEYGSADRIFSCPQNTYTQSLMAAAFALESDRL	not soluble
METRRRSSRLQQQTTSDLNAREEPQPSEPPVKRARGAKKNEAPSTAPMPPKTTKKSTKPSRKQGSPIEAELDEMGFELENEEEAEIVVQKSKKNGRKLVKIDENLRISAENGSKSSNFLEENRMEIDEKPGNLAKKSSKNGSRVVKSDEKSENLVQSVPKSTTNGSKVAIIEDDPEIRAENGVKSSKSDEKPDFSAQNGSKLAQNAPNRISRPRRSVTTAKKVSYVPSDDQLELSSSSSELESSSEDEDTEIRPKTGSKIAKKREKSFKISESESSSESPDDESEASEASEDPSIPGPSEPRKRRKIQRKSTLSSGGATTKDLHWPKCSKASIARKTGNPGSKNAAKKPAKSSLRMAQKQKPDQPWKKNLKDYETDRKLAKGERRMLEYRHVAHAYVARGKIEEITYDEAYKLHEMMKKAYFAGRSLLDAAVLDPVEFEKSQKNVKKSEKNDEKNTAGDSSSSEDEWEEMEHFQPPIIDDNIEVSIDHEGGGGDDGEEVVKDWWAIYLRQEINRKIREMWENTHKLLFCLLRGLELTTRLVVNVRAIPRRWDKTQQKELQNELSKFRELSRSRSTTPGEKSLEIQEKSGEKSQKPAKKGQKSEKKAAKKVVVEERNYWVEYWQPREKRWICVDPLHKSVDEPLSIHEHSASPISYVFAIDNKQGICEVSQRYAMDCVKQDFRRRRTNPKWVAWTLFLPPFAANSERKKWEMMQMREDLVKRPLPTVMSEYKNHPLYALEKDLLKFEAIYPPPATQKPLGQIRGHNVYPRSTVFTLQGENNWLKLARSVKIGEKPYKIVKARPDPRIPVEDREDKFLDVYGYWQTEKYRRPPLKNGKIPHNEYGNVYMFNENMCPLDCTYLKLSGLVQISRKLGKQCIPAVVGWAFDGGFTHPVIDGAIVLEKDAIDFINAWEKLESGRAEKEEKQRVEKIHENWKKLIKGMLRLAYVRKQFGHPAAEKPTKRQKIGGKTEEIEENEGGAGPPSSVDHITDNTEQITPMHGFSLDDFINKKK	soluble
MGSDKIHHHHHHMNKLNFKGSVMLNPTPVVLVTSKDKSQNLNVFTVGWVSTVCTKDPIIAMGIRPERLSYQYIKESCECVINLPTTSMVKIVDYCGVVSGRRVDKIKHFSLPLNDGVSISTPSLENCPVALECKVKSVTPLGTHDLFLLQVLNVKIDETLLDKNNKICFNKANLMCYNHGEYYGLNSKPIGSFGFSVKKKTKKIHRRKKGD	not soluble
EVVVVGYQEVRRRDLTGSVAKANMADVLTAPVASFDQALGGRIAGVNVTSGEGMPGGNMSIVIRGNNSLTQENSPLFVIDGFPIEDSSAASTLNPSDIESLDFLKDASATAIYGARGANGVVIITTKKGK	not soluble
MKRLIVGISGASGAIYGVRLLQVLRDVTDIETHLVMSQAARQTLSLETDFSLREVQALADVTHDARDIAASISSGSFQTLGMVILPCSIKTLSGIVHSYTDGLLTRAADVVLKERRPLVLCVRETPLHLGHLRLMTQAAEIGAVIMPPVPAFYHRPQSLDDVINQTVNRVLDQFAITLPEDLFARWQGA	not soluble
FRELTEREEAVRESHQRISTILESITDAFFSLDHSWRFTYLNGEAERLLGRTRDDLLGKSIWEEFAAAVGTRFDVEYRRAVASGTTATFEEYYPPLACWFEVHAYPSRDGLSVFFQDIT	not soluble
MGSDKIHHHHHHMDGSLNGETWRFIVRNIRIGVVEDDPASCQLVLDYLNRYQSETGEQFTVSVFDDGARIVEKYAPVYDILLLDIEMKEIDGMAAARRIRERDDNVVIIFITAAPQYAISGYEVRALSYLLKPLPWFAFSQELKKSIDMVRRNGDDSMLIETGKGQMRMNLTDILYLESIRHTIVIHTLDGKYSINGTLKDMEAKLADRHFFRSNSCYLVNLKHVTGVADQDCIMSDDERLRVSRPRKKAFLAALADYMGGGR	not soluble
MSLSKVRYGVVSTAKVAPRFIEGVRLAGNGEVVAVSSRTLESAQAFANKYHLPKAYDKLEDMLADESIDVIYVATINQDHYKVAKAALLAGKHVLVEKPFTLTYDQANELFALAESCNLFLMEAQKSVFIPMTQVIKKLLASGEIGEVISISSTTAYPNIDHVTWFRELELGGGTVHFMAPYALSYLQYLFDATITHASGTATFPKGQSDSQSKLLLQLSNGVLVDIFLTTRLNLPHEMIIYGTEGRLIIPHFWKTTHAKLVRNDTSARTIQVDMVSDFEKEAYHVSQMILEGQRVSHIMTPQLTLSGVKIIEDLYRSWGKEGHHHHHH	soluble
GSPEFRWTKEEEETRQMYDMVVKIIDVLRSHNEACQENKDLQPYMPIPHVRDSLIQPHDRKKMKKVWDRAVDFLAANESRVRTETRRIGGADFLVWRWIQPSASCDKILVIPSKVWQGQAFHLDRRLERPHRD	soluble
MAHHHHHHMLAAIQGFGTRVAARTAGQALRRGLGVVPLRRCCPFRCASSASLPSDVEVHQGSDDYRHSDDAFTLSTEVLGTAEEKATLDEDEFDELEAASQELHDLCYALIAHLRCADPEANKALFERRVQRAFREPKPEQYRRLLHGHGDRSLRRRNNYRTRKDFQEAHRLYLQWCDKLLLLLTQPVLDRLVKSAGKGHRDLRTDGVHRYRRPLERATWRSFPHRWFKHAPFEVQQLRADIPESAVLNTRFYRDHATLRYLFTLMEPQHAFREKIERRVMDLTQRYDPLRKSIE	not soluble
MFKGSIPALITPFTDNGSVDEKAFAAHVEWQIAEGSNGLVPVGTTGESPTLSHDEHKRVVELCIEVAAKRVPVIAGAGSNNTDEAIELALHAQEAGADALLVVTPYYNKPTQKGLFAHFSAVAEAVKLPIVIYNIPPRSVVDMSPETMGALVKAHKNIIGVKDATGKLDRVSEQRISCGKDFVQLSGEDGTALGFNAHGGVGCISVTANVAPRLCSEFQAAMLAGDYAKALEYQDRLMPLHRAIFMEPGVCGTKYALSKTRGGNRRVRSPLMSTLEPATEAAIDAALKHAGLMN	not soluble
MSSSAPKYTTFQGSQNFRLRIVLATLSGKPIKIEKIRSGDLNPGLKDYEVSFLRLIESVTNGSVIEISYTGTTVIYRPGIIVGGASTHICPSSKPVGYFVEPMLYLAPFSKKKFSILFKGITASHNDAGIEAIKWGLMPVMEKFGVRECALHTLKRGSPPLGGGEVHLVVDSLIAQPITMHEIDRPIISSITGVAYSTRVSPSLVNRMIDGAKKVLKNLQCEVNITADVWRGENSGKSPGWGITLVAQSKQKGWSYFAEDIGDAGSIPEELGEKVACQLLEEISKSAAVGRNQLPLAIVYMVIGKEDIGRLRINKEQIDERFIILLRDIKKIFNTEVFLKPVDEADNEDMIATIKGIGFTNTSKKIA	not soluble
MGSDKIHHHHHHMREDFLSREEVDALLRGVSSGSTTSEQSTANPGFRPYNLATQERIVRGRMPTLEIINERFARLLRLGLFNFMRRSANVTAGPVRVMKFSEFVRNLAAPSNLNLVHIKPLRGTSLFVFDPTLVFLVVDNLFGGDGRFLPKTEGRDFTQTEQRIIQRLLNLVFDSYGKSWHPVYPIEFEYLRAETNTQFANVATPNEVVVATTFEVNFGSVVGEMHICMPYSILEPIRDLLSSTLQGEALEVDKRWVGRLSKQVQSAEVTLLANLTHAQVRLDQILNMKVGDVIPLDIPEFVTASVDGVPVMECKYGISNGRYALRMEKMLASGNSNE	not soluble
METKFYNHQGGHLILYFAGWGTPPDAVNHLILPENHDLLICYDYQDLNLDFDFSAYRHIRLVAWSMGVWAAERALQGIRLKSATAVNGTGLPCDDNFGIPCTVFKGTLENLTENTRLKFERRMCGDKASFEDYQQFPARPFGEIHQELIALFAMIGQDRRTDLIRWTNALVGSGDKIFMPANQHRYWTPRCTVREIDVGHYLFSRFTHWSALWNH	not soluble
HPWRKGPFTVHDIHIDTEWRSDWKWDRLLPHITPLKNRSVLDVGCGNGYHMWRMLGEDARLCVGIDPSHLFLIQFEAIRKLMGNDQRAHLLPLGIEQLPELNAFDTVFSMGVLYHRRSPLDHLIQLKNQLVAGGELVLETLVIDGDENAVLMPVDRYAQMRNVYFFPSARALKVWLESVGFVDVKIVDECVTTTGEQRSTEWMKHNSLPEYLDPNDSTKTIEGHPAPKRAILIAKKPD	not soluble
GTVKVYLPNKQRTVVTVRDGMSVYDSLDKALKVRGLNQDCCVVYRLIKGRKTVTAWDTAIAPLDGEELIVEVL	soluble
MSLSVIDLLKQRVQSAGKKPVIIFPEG	not soluble

— the DeepSol protein solubility set
